Measurements: article PMC3932107

Columns and labels:
[1] = molecular target: Alexa488-labeled γ-synuclein (human) (UniProt O76070); assay: photon counting histogram
[2] = molecular target: CPM-labeled γ-synuclein (human) (UniProt O76070); assay: other fluorescence titration

Substance	stoichiometry N [1]	Kd [2]
Alexa488-labeled γ-synuclein (from UniProt O76070 1-127) (natural protein)	20	
γ-synuclein, purified from E. coli, unlabelled (from UniProt O76070 1-127) (natural protein)		5 nM
